# Source: patent US8062638 (Chugai, dated 2011)
# Target: T1, human tissue factor (TF) on cells (human, UniProt P13726 33-295)
# T1 construct: also called human TF; the antigen
# Test: cell ELISA on fixed J82 cells expressing TF
row,binding result,Binder
1,binds,"chimeric H chain / humanized L chain version b antibody (antibody, V domains shown, Expressed from N5KG4P (human IgG4-type); also called ch-b) VH: EVQLQQSGTNLVRPGALVKLSCKGSGFNIKDYYMHWVKQRPEQGLEWIGGNDPANGHSMYDPKFQGKASITADTSSNTAYLQLSSLTSEDTAVYFCARDSGYAMDYWGQGTSVTVSS VL: DIQMTQSPSSLSASVGDRVTITCKASQDIKSFLSWYQQKPGKAPKLLIYYATSLADGVPSRFSGSGSGTDYTLTISSLQPEDFATYYCLQHGESPYTFGGGTKVEIK"
2,binds,"chimeric H chain / humanized L chain version a antibody (antibody, V domains shown, Expressed from N5KG4P (human IgG4-type)) VH: EVQLQQSGTNLVRPGALVKLSCKGSGFNIKDYYMHWVKQRPEQGLEWIGGNDPANGHSMYDPKFQGKASITADTSSNTAYLQLSSLTSEDTAVYFCARDSGYAMDYWGQGTSVTVSS VL: DIQMTQSPSSLSASVGDRVTITCKASQDIKSFLSWYQQKPGKAPKLLIYYATSLADGVPSRFSGSGSGTDFTLTISSLQPEDFATYYCLQHGESPYTFGGGTKVEIK"
3,binds,"chimeric H chain / humanized L chain version b1 antibody (antibody, V domains shown, Expressed from N5KG4P (human IgG4-type); also called ch-b1) VH: EVQLQQSGTNLVRPGALVKLSCKGSGFNIKDYYMHWVKQRPEQGLEWIGGNDPANGHSMYDPKFQGKASITADTSSNTAYLQLSSLTSEDTAVYFCARDSGYAMDYWGQGTSVTVSS VL: DIQMTQSPSSLSASVGDRVTITCKASQDIKSFLSWFQQKPGKSPKTLIYYATSLADGVPSRFSGSGSGTDYTLTISSLQPEDFATYYCLQHGESPYTFGGGTKVEIK"
4,binds,"chimeric H chain / humanized L chain version b2 antibody (antibody, V domains shown, Expressed from N5KG4P (human IgG4-type); also called ch-b2) VH: EVQLQQSGTNLVRPGALVKLSCKGSGFNIKDYYMHWVKQRPEQGLEWIGGNDPANGHSMYDPKFQGKASITADTSSNTAYLQLSSLTSEDTAVYFCARDSGYAMDYWGQGTSVTVSS VL: DIQMTQSPSSLSASVGDRVTITCKASQDIKSFLSWYQQKPEKAPKSLIYYATSLADGVPSRFSGSGSGTDYTLTISSLQPEDFATYYCLQHGESPYTFGGGTKVEIK"
5,binds,"humanized H chain version b / chimeric L chain antibody (antibody, V domains shown, Expressed from N5KG4P (human IgG4-type)) VH: QVQLLESGAVLARPGTSVKISCKASGFNIKDYYMHWVKQRPGQGLEWIGGNDPANGHSMYDPKFQGRVTITADTSTNTAYMELSSLRSEDTAIYYCARDSGYAMDYWGQGTLVTVSS VL: DIKMTQSPSSMYASLGERVTITCKASQDIKSFLSWYQQKPWKSPKTLIYYATSLADGVPSRFSGSGSGQDYSLTINNLESDDTATYYCLQHGESPYTFGGGTKLEIK"
6,binds,"H chain humanized version b / L chain humanized version b antibody (antibody, V domains shown, also called b-b; humanized antibody version b-b) VH: QVQLLESGAVLARPGTSVKISCKASGFNIKDYYMHWVKQRPGQGLEWIGGNDPANGHSMYDPKFQGRVTITADTSTNTAYMELSSLRSEDTAIYYCARDSGYAMDYWGQGTLVTVSS VL: DIQMTQSPSSLSASVGDRVTITCKASQDIKSFLSWYQQKPGKAPKLLIYYATSLADGVPSRFSGSGSGTDYTLTISSLQPEDFATYYCLQHGESPYTFGGGTKVEIK"
7,binds,"humanized H chain version c / chimeric L chain antibody (antibody, V domains shown, Expressed from N5KG4P (human IgG4-type)) VH: QVQLLESGAVLARPGTSVKISCKASGFNIKDYYMHWVKQRPGQGLEWIGGNDPANGHSMYDPKFQGRVTMLVDTSKNQFSLRLSSVTAADTAVYYCARDSGYAMDYWGQGTLVTVSS VL: DIKMTQSPSSMYASLGERVTITCKASQDIKSFLSWYQQKPWKSPKTLIYYATSLADGVPSRFSGSGSGQDYSLTINNLESDDTATYYCLQHGESPYTFGGGTKLEIK"
8,binds,"humanized H chain version d / chimeric L chain antibody (antibody, V domains shown, Expressed from N5KG4P (human IgG4-type)) VH: QVQLLESGAVLARPGTSVKISCKASGFNIKDYYMHWVKQRPGQGLEWIGGNDPANGHSMYDPKFQGRVTITADESTSTAYMELSSLRSEDSAVYFCARDSGYAMDYWGQGTLVTVSS VL: DIKMTQSPSSMYASLGERVTITCKASQDIKSFLSWYQQKPWKSPKTLIYYATSLADGVPSRFSGSGSGQDYSLTINNLESDDTATYYCLQHGESPYTFGGGTKLEIK"
9,binds,"humanized H chain version b / humanized L chain version b2 antibody (antibody, V domains shown, Expressed from N5KG4P (human IgG4-type); also called b-b2) VH: QVQLLESGAVLARPGTSVKISCKASGFNIKDYYMHWVKQRPGQGLEWIGGNDPANGHSMYDPKFQGRVTITADTSTNTAYMELSSLRSEDTAIYYCARDSGYAMDYWGQGTLVTVSS VL: DIQMTQSPSSLSASVGDRVTITCKASQDIKSFLSWYQQKPEKAPKSLIYYATSLADGVPSRFSGSGSGTDYTLTISSLQPEDFATYYCLQHGESPYTFGGGTKVEIK"
10,binds,"humanized H chain version j / humanized L chain version b antibody (antibody, V domains shown, Expressed from N5KG4P (human IgG4-type); also called j-b) VH: QVQLLESGAVLARPGTSVKISCKASGFNIKDYYMHWVKQRPGQGLEWIGGNDPANGHSMYDPKFQGRVTFTADTSANTAYMELRSLRSADTAVYYCARDSGYAMDYWGQGTLVTVSS VL: DIQMTQSPSSLSASVGDRVTITCKASQDIKSFLSWYQQKPGKAPKLLIYYATSLADGVPSRFSGSGSGTDYTLTISSLQPEDFATYYCLQHGESPYTFGGGTKVEIK"
11,binds,"H chain humanized version i / L chain humanized version b2 antibody (antibody, V domains shown, also called i-b2; humanized anti-human TF antibody version i-b2) VH: QVQLLESGAVLARPGTSVKISCKASGFNIKDYYMHWVKQRPGQGLEWIGGNDPANGHSMYDPKFQGRVTITADTSTSTVFMELSSLRSEDTAVYYCARDSGYAMDYWGQGTLVTVSS VL: DIQMTQSPSSLSASVGDRVTITCKASQDIKSFLSWYQQKPEKAPKSLIYYATSLADGVPSRFSGSGSGTDYTLTISSLQPEDFATYYCLQHGESPYTFGGGTKVEIK"
12,binds,"humanized H chain version b / humanized L chain version a antibody (antibody, V domains shown, Expressed from N5KG4P (human IgG4-type); also called b-a) VH: QVQLLESGAVLARPGTSVKISCKASGFNIKDYYMHWVKQRPGQGLEWIGGNDPANGHSMYDPKFQGRVTITADTSTNTAYMELSSLRSEDTAIYYCARDSGYAMDYWGQGTLVTVSS VL: DIQMTQSPSSLSASVGDRVTITCKASQDIKSFLSWYQQKPGKAPKLLIYYATSLADGVPSRFSGSGSGTDFTLTISSLQPEDFATYYCLQHGESPYTFGGGTKVEIK"
13,binds,"humanized H chain version b / humanized L chain version c antibody (antibody, V domains shown, Human IgG4-type (N5KG4P series); also called b-c) VH: QVQLLESGAVLARPGTSVKISCKASGFNIKDYYMHWVKQRPGQGLEWIGGNDPANGHSMYDPKFQGRVTITADTSTNTAYMELSSLRSEDTAIYYCARDSGYAMDYWGQGTLVTVSS VL: DIQMTQSPSSLSASVGDRVTITCKASQDIKSFLSWYQQKPGKAPKLLIYYATSLADGVPSRFSGSGSGTDYTLTISSLQPEDIATYYCLQHGESPYTFGGGTKVEIK"
14,binds,"humanized H chain version g / humanized L chain version b antibody (antibody, V domains shown, Expressed from N5KG4P (human IgG4-type); also called g-b) VH: QVQLLESGAVLARPGTSVKISCKASGFNIKDYYMHWVKQRPGQGLEWIGGNDPANGHSMYDPKFQGKATLTADESSSTAYMQLSSLRSEDSAVYSCARDSGYAMDYWGQGTLVTVSS VL: DIQMTQSPSSLSASVGDRVTITCKASQDIKSFLSWYQQKPGKAPKLLIYYATSLADGVPSRFSGSGSGTDYTLTISSLQPEDFATYYCLQHGESPYTFGGGTKVEIK"
15,binds,"humanized H chain version d / humanized L chain version b antibody (antibody, V domains shown, Expressed from N5KG4P (human IgG4-type); also called d-b) VH: QVQLLESGAVLARPGTSVKISCKASGFNIKDYYMHWVKQRPGQGLEWIGGNDPANGHSMYDPKFQGRVTITADESTSTAYMELSSLRSEDSAVYFCARDSGYAMDYWGQGTLVTVSS VL: DIQMTQSPSSLSASVGDRVTITCKASQDIKSFLSWYQQKPGKAPKLLIYYATSLADGVPSRFSGSGSGTDYTLTISSLQPEDFATYYCLQHGESPYTFGGGTKVEIK"
16,binds,"humanized H chain version d3 / humanized L chain version b antibody (antibody, V domains shown, Expressed from N5KG4P (human IgG4-type); also called d3-b) VH: QVQLLESGAVLARPGTSVKISCKASGFNIKDYYMHWVRQAPGQGLEWIGGNDPANGHSMYDPKFQGRVTITADESTSTAYMELSSLRSEDSAVYFCARDSGYAMDYWGQGTLVTVSS VL: DIQMTQSPSSLSASVGDRVTITCKASQDIKSFLSWYQQKPGKAPKLLIYYATSLADGVPSRFSGSGSGTDYTLTISSLQPEDFATYYCLQHGESPYTFGGGTKVEIK"
17,binds,"humanized H chain version j / chimeric L chain antibody (antibody, V domains shown, Expressed from N5KG4P (human IgG4-type)) VH: QVQLLESGAVLARPGTSVKISCKASGFNIKDYYMHWVKQRPGQGLEWIGGNDPANGHSMYDPKFQGRVTFTADTSANTAYMELRSLRSADTAVYYCARDSGYAMDYWGQGTLVTVSS VL: DIKMTQSPSSMYASLGERVTITCKASQDIKSFLSWYQQKPWKSPKTLIYYATSLADGVPSRFSGSGSGQDYSLTINNLESDDTATYYCLQHGESPYTFGGGTKLEIK"
18,binds,"humanized H chain version b3 / humanized L chain version b antibody (antibody, V domains shown, Expressed from N5KG4P (human IgG4-type); also called b3-b) VH: QVQLLESGAVLARPGTSVKISCKASGFNIKDYYMHWVRQAPGQGLEWIGGNDPANGHSMYDPKFQGRVTITADTSTNTAYMELSSLRSEDTAIYYCARDSGYAMDYWGQGTLVTVSS VL: DIQMTQSPSSLSASVGDRVTITCKASQDIKSFLSWYQQKPGKAPKLLIYYATSLADGVPSRFSGSGSGTDYTLTISSLQPEDFATYYCLQHGESPYTFGGGTKVEIK"
19,binds,"humanized H chain version e / chimeric L chain antibody (antibody, V domains shown, Expressed from N5KG4P (human IgG4-type)) VH: QVQLLESGAVLARPGTSVKISCKASGFNIKDYYMHWVKQRPGQGLEWIGGNDPANGHSMYDPKFQGRVSITADESTKIAYMELNSLRSEDTAVYFCARDSGYAMDYWGQGTLVTVSS VL: DIKMTQSPSSMYASLGERVTITCKASQDIKSFLSWYQQKPWKSPKTLIYYATSLADGVPSRFSGSGSGQDYSLTINNLESDDTATYYCLQHGESPYTFGGGTKLEIK"
20,binds,"H chain humanized version i / L chain humanized version b antibody (antibody, V domains shown, also called humanized antibody version i-b) VH: QVQLLESGAVLARPGTSVKISCKASGFNIKDYYMHWVKQRPGQGLEWIGGNDPANGHSMYDPKFQGRVTITADTSTSTVFMELSSLRSEDTAVYYCARDSGYAMDYWGQGTLVTVSS VL: DIQMTQSPSSLSASVGDRVTITCKASQDIKSFLSWYQQKPGKAPKLLIYYATSLADGVPSRFSGSGSGTDYTLTISSLQPEDFATYYCLQHGESPYTFGGGTKVEIK"
21,binds,"humanized H chain version i / humanized L chain version b1 antibody (antibody, V domains shown, Expressed from N5KG4P (human IgG4-type); also called i-b1) VH: QVQLLESGAVLARPGTSVKISCKASGFNIKDYYMHWVKQRPGQGLEWIGGNDPANGHSMYDPKFQGRVTITADTSTSTVFMELSSLRSEDTAVYYCARDSGYAMDYWGQGTLVTVSS VL: DIQMTQSPSSLSASVGDRVTITCKASQDIKSFLSWFQQKPGKSPKTLIYYATSLADGVPSRFSGSGSGTDYTLTISSLQPEDFATYYCLQHGESPYTFGGGTKVEIK"
22,binds,"humanized H chain version i / chimeric L chain antibody (antibody, V domains shown, Expressed from N5KG4P (human IgG4-type)) VH: QVQLLESGAVLARPGTSVKISCKASGFNIKDYYMHWVKQRPGQGLEWIGGNDPANGHSMYDPKFQGRVTITADTSTSTVFMELSSLRSEDTAVYYCARDSGYAMDYWGQGTLVTVSS VL: DIKMTQSPSSMYASLGERVTITCKASQDIKSFLSWYQQKPWKSPKTLIYYATSLADGVPSRFSGSGSGQDYSLTINNLESDDTATYYCLQHGESPYTFGGGTKLEIK"
